From patent US20060292140A1 (published 2006)

What was measured:
human α4β7 integrin [1] = molecular target: T1, human α4β7 integrin (human, UniProt P13612 34-1032; P26010 20-798); assay: flow cytometry competition on HuT 78 cells; competitor biotinylated murine Act-1 held constant; experiment 3, lot 2
T1 construct: whole, on cells; also called α4β7 integrin on HuT 78 cells; on RPMI 8866 cells
Method: (§1) Unless otherwise indicated, all reagents were diluted in 0.15 M PBS/1.0% FCS/0.1% sodium azide. The varying concentrations for both antibodies ranged in half-log increments from 2.0×10⁻⁶M to 5.0×10⁻¹¹M. After removal of the primary antibodies, the cells were then suspended in 100 μl streptavidin phycoerythrin (Dako Corp., Carpinteria, Calif.) diluted 1:200. After washing in 200 μl PBS, cells were resuspended in 0.5 ml of PBS/1% formalin and refrigerated until analyzed. Samples were analyzed on a FACScan (Becton Dickinson Corp., San Jose, Calif.) using a 488 nm laser to excite phycoerythrin. For each sample, a minimum of 10,000 cells was analyzed and MCF calculated. All samples were performed in duplicate. The IC₅₀ was determined as the concentration of unconjugated antibody producing a 50% reduction in the MCF from the biotinylated homologue antibody.

human α4β7 integrin [2] = molecular target: T1, human α4β7 integrin; assay: flow cytometry competition on HuT 78 cells; competitor biotinylated murine Act-1 held constant; experiment 2, lot 2
Method: as §1

human α4β7 integrin [3] = molecular target: T1, human α4β7 integrin; assay: flow cytometry competition on HuT 78 cells; competitor biotinylated LDP-02/3A9/Lot#1 held constant
Method: as §1

human α4β7 integrin [4] = molecular target: T1, human α4β7 integrin; assay: flow cytometry competition on HuT 78 cells; competitor biotinylated murine Act-1 held constant; experiment 4, lot 2
Method: as §1

human α4β7 integrin [5] = molecular target: T1, human α4β7 integrin; assay: flow cytometry competition on HuT 78 cells; competitor biotinylated murine Act-1 held constant; mean of 5 experiments
Method: as §1

human α4β7 integrin [6] = molecular target: T1, human α4β7 integrin; assay: flow cytometry titration of biotinylated antibody on HuT 78 cells, half-maximal mean channel fluorescence
Method: Unless otherwise indicated, all reagents were diluted in 0.15 M PBS/1.0% FCS/0.1% sodium azide. […] After washing in 200 μl PBS, cells were resuspended in 0.5 ml of PBS/1% formalin and refrigerated until analyzed. Samples were analyzed on a FACScan (Becton Dickinson Corp., San Jose, Calif.) using a 488 nm laser to excite phycoerythrin. […] All samples were performed in duplicate.

human α4β7 integrin [7] = molecular target: T1, human α4β7 integrin; assay: flow cytometry competition on HuT 78 cells; competitor biotinylated murine Act-1 held constant; experiment 5, lot 2
Method: as §1

human α4β7 integrin [8] = molecular target: T1, human α4β7 integrin; assay: flow cytometry competition on HuT 78 cells; competitor biotinylated murine Act-1 held constant; experiment 1, lot 2
Method: as §1

human α4β7 integrin [9] = molecular target: T1, human α4β7 integrin; assay: cell-based or functional assay
human α4β7 integrin [10] = molecular target: T1, human α4β7 integrin; assay: flow cytometry on HuT 78 cells, transient COS-7 expression

| Binder | IC50 (human α4β7 integrin [1]) | IC50 (human α4β7 integrin [2]) | IC50 (human α4β7 integrin [3]) | IC50 (human α4β7 integrin [4]) | IC50 (human α4β7 integrin [5]) | EC50 (human α4β7 integrin [6]) | IC50 (human α4β7 integrin [7]) | IC50 (human α4β7 integrin [8]) | IC50: concentration which inhibited by 50% the adhesion of RPMI 8866 cells to human MAdCAM-1-Ig chimera (human α4β7 integrin [9]) | binding result (human α4β7 integrin [10]) |
| --- | --- | --- | --- | --- | --- | --- | --- | --- | --- | --- |
| murine Act-1 monoclonal antibody (antibody, mouse IgG1, V domains shown, Mouse IgG1/kappa from the Act-1 hybridoma; also called mouse Act-1; ACT-1 (murine)) VH: QVQLQQPGAELVKPGTSVKLSCKGYGYTFTSYWMHWVKQRPGQGLEWIGEIDPSESNTNYNQKFKGKATLTVDISSSTAYMQLSSLTSEDSAVYYCARGGYDGWDYAIDYWGQGTSVTVSS VL: DVVVTQTPLSLPVSFGDQVSISCRSSQSLAKSYGNTYLSWYLHKPGQSPQLLIYGISNRFSGVPDRFSGSGSGTDFTLKISTIKPEDLGMYYCLQGTHQPYTFGGGTKLEIK | 6.02 nM | 10.9 nM | 6.3 nM | 4.91 nM | 7.94 nM | 0.1 µg/mL | 10.2 nM | 7.57 nM | 0.0018 µg/mL |  |
| derivative of LDP-02 (Fc-mutated) having a mutation in the light chain (MV4) plus a double mutation in the heavy chain (R38K, A40R) (antibody, human IgG1, V domains shown, transient COS-7 expression; also called M4V / R38K, A40R derivative) VH: QVQLVQSGAEVKKPGASVKVSCKGSGYTFTSYWMHWVKQRPGQRLEWIGEIDPSESNTNYNQKFKGRVTLTVDISASTAYMELSSLRSEDTAVYYCARGGYDGWDYAIDYWGQGTLVTVSS VL: DVVVTQSPLSLPVTPGEPASISCRSSQSLAKSYGNTYLSWYLQKPGQSPQLLIYGISNRFSGVPDRFSGSGSGTDFTLKISRVEAEDVGVYYCLQGTHQPYTFGQGTKVEIK |  |  |  |  |  |  |  |  |  | binds |
